# Reference: patent publication US20210275586A1
# Biological target: CD20 antigen on CD20 positive Jeko-1 cells (human) (UniProt P11836)
# Assay: flow cytometry on CD20+ Jeko-1 cells, secondary staining with anti-Biotin APC
# Sequence of UniProt P11836 (P11836 whole entry): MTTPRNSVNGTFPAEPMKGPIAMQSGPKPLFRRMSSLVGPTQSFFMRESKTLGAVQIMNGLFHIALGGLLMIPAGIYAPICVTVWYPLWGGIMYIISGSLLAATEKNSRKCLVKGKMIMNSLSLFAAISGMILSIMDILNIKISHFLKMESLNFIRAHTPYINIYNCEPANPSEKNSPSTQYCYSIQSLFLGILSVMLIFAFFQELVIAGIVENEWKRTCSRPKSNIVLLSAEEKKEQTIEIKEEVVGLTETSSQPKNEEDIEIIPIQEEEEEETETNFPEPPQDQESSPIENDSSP
substance,measurement,value
biotin-crosslinker conjugated anti-CD20 FAb (Rtx Fab MS2),lowest concentration at which binding was detected,0.1 µg/mL
